Data on 41 sequences can be found in the nanobody polyreactivity screen of Harvey et al. (2022).

This data set can be described thus: yeast display, Sf9 membrane polyspecificity reagent, FACS + sequencing; frameworks hold sequencing errors. In a few lines: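 A nanobody's polyreactivity label depends on the gate it was sorted from. Yeast display cells were stained with 10% biotinylated, detergent-solubilized Sf9 membrane reagent for 1 hour at 4 °C, enriched on streptavidin microbeads and sorted by FACS. The low and high (top ~1%) gates were set on anti-HA fluorescence for expression and streptavidin fluorescence for reagent binding.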
In the case of “QVQLVESGGGLVQAGGSLSLSCAASGFIFVPYAMGLSRQAPGKERELVARITWSGGRTYYADSVKGRFTISRDNAKNTVYLQLNSLKPEDTAVYYCNADVYGFDYWGQGTQVTVSS”, the “polyreactivity (PSR sort gate)” value is on record as “high polyreactivity”.

On to “QVQLVDSVGVLVQAGGSLRLSCAASGSIFYRNVMGWYRPAPGKERELVATISRGGTTNYADSVKGRFTISRDNAKNTVYLQMNSLKPEDTAVFYCAAPIGDVYVGIGYDSWGQGTQVTVSS”, for which the “polyreactivity (PSR sort gate)” value is given as “low polyreactivity”.

As to “QVQLVESGGGLVQAGGSLRLSCAASGFIFRGYTMGWYRQAPGKERELVAAITTTSSTYYADSVKGRFTISRDNAKNTVYLQMNSLKPEDTAVYYCAALFYRYGYLYNYWGQGTQVTVSS”, the “polyreactivity (PSR sort gate)” value was “high polyreactivity”.

As for “QVQLVESGGGLVQAGGSLRLSCAASGSTLRTYAMVWYRQAPGKERELVAAISFSTTSTYYADSVKGRFTISRDNATNTVYLQMNSLKPEDTAVYYCAATYQILTTSAHDSWGQGTQVTVSS”, the “polyreactivity (PSR sort gate)” value is listed as “high polyreactivity”.

Regarding “QVQLVETGGGLVQAGGSLRLSCAASGSTFYRNTKGCYRQAPGKEREFVAGISDRGTSTYYADSVKGRFTISRDNAKNTVYLQMNSLKPEDTAVYYCNKRSWPAYVHKYDYWGQGTQVTVSS”, the “polyreactivity (PSR sort gate)” value is on record as “low polyreactivity”.

As for “QVQLVESGGGLVQAGGSLRLSCAASGRTFQYYAMGWYRQAPGKERELVAAITRGDSTYYADSVKGRFTISRDNAKNTVYLQMNSLKPEDTAVYYCNAKLYKPPFDYWGQGTQVTVSS”, the “polyreactivity (PSR sort gate)” value is reported as “low polyreactivity”.

“QVELVESGGGLVQAGGCLRLSCAASGGIFESYAMGWYRRAPGRERELVADSTSGGSTNYADSVKGRFTIAGDNAKNTLYLQMNSLKPEDTAVYYCAKEFYYSVGVNLGDSWGQGTQGTVSS”: the “polyreactivity (PSR sort gate)” value is on record as “low polyreactivity”.

Take “QVQLVESGGGLVQAGGSLRLSCAASGSTLSGNAMGWYRQAPGKERELVAAISWNGGATYYADSVKGRFTISRDNAKNTVYLQMNSQKPEDTAVYYCAAEYIVTYEYWYFGYDYWGQGTQVTVSS”: the “polyreactivity (PSR sort gate)” value is reported as “low polyreactivity”.

For “QVQLVESGGRLVQAGGSLRLSCAASGFIFAYNAMGWYRQAPGKERELVAAISWSGGSTYYADSVKGRFTISRDNAKNTVYLQMNSLKPEDTAVSYCNKYIRYPFKRYGYWGQGTQVTVSS”, the “polyreactivity (PSR sort gate)” value is reported as “high polyreactivity”.

For “QVQLQESGGGLVQAGGSLRCAASGNISTRSEMGWYRQAPGKEREFVATINSGGITNYADSVKGRFTISRDNAKNTVYLRMNCLKPEDTAVYYRAVYGYFSDPYDYWGQGTQVTVSS”, the “polyreactivity (PSR sort gate)” value was “low polyreactivity”.

For “QVQLVESGGGLVQAGGSLRLICAASGSTFVPYTMAWYRQAPGKERELVAAISGSGGTDYADSVKGRFTISRDNGKNTVYLQMNSLKPEDTAVYYCAAYSRVVPSFYYWGQGTQVTVSS”, the “polyreactivity (PSR sort gate)” value is reported as “low polyreactivity”.

For “QVQLVESGGGLVQAGGSLRLSCAASGLIFYDNMGWYRQAPGKERELLAAISSSGGSTSYADSVKGRFTISRDNAKITVSLQMNCLKPEDTGVYYCAADSYPAYLGFVGFDYWGQGTQVTVSS”, the “polyreactivity (PSR sort gate)” value was “low polyreactivity”.

Regarding “QVQLVESGGGLVQAGGSLRLSCAASGSIFGPNAMGWYRQAPGKERELVAAITSGSSTKYADSVKGRFTISRDNAKNPVYLQMNSLKPEDTAVYYCAASGTTTWKYGYWGQGTQVTVSS”, the “polyreactivity (PSR sort gate)” value was “low polyreactivity”.

For “QVQLVESGGGLVQAGGSLRLSCAAAGLTFEWYTMGWYRQAPGKERELVADISGDGSTYYADSVKGRFTISRDNAKNTVYLQMNSLKPEDTAVYYCAASFWGFAMGYWGQGTQVTVSS”, the “polyreactivity (PSR sort gate)” value is reported as “high polyreactivity”.

For “QVQLVESGGGLVQAGGSLRISCAASGRTFQFNVMGWYRQAPGKERELVASIRSGGSTNYADSVKGRFTISRDNAKNTVYLQMNSLKPEDTAVYYCAARVASPYYRYDYWGQGTQVTVSS”, the “polyreactivity (PSR sort gate)” value is “low polyreactivity”.

Turning to “QVQLVESGGGLVQAGGSLRLSCAASGRTFYIYAMGWYRQAPGKERELVAAITYGGGRTFYADSVKGRFTISRDNAKNTVYLQMNSLKPEDTAVYYCAATVRGKRSTYDYWGQGTQVTVSS”, the “polyreactivity (PSR sort gate)” value is listed as “high polyreactivity”.

“QVQLVESGGGLVQAGGSLRLSCAASGRIFLRNAMGWSRQAPRKERELVAAISSSGGRTYYADSVKGRFTISRDNAKNTVYLQMNSLKPEDTAVYYCNARWHGSFDYWGQGTQVTVSS”: the “polyreactivity (PSR sort gate)” value was “low polyreactivity”.

Take “QVQLVESCGGLVQAGGSLRLSCAASGRTFGVYAMGWYRQAPGKERDLVAAINYSGGSTYYADSVKGRFTISRDNAKNTVYLQMNSLKPEDTAVYSCNKGPLISYAYRYYQPYDYWGQGTQVTVSS”: the “polyreactivity (PSR sort gate)” value is reported as “low polyreactivity”.

As to “QVQLVESGGGLVQAGGSLRLSCAASGSTFRFYAMGWYRQAPGKERELLAAINGSGGSTYYADSVKGRFTISRDKAKSTVNLQMNSLKPEDTAVYYSAVLYRYGYDYWGQGTQVTVSS”, the “polyreactivity (PSR sort gate)” value is on record as “low polyreactivity”.

“QVQLVESGGGLVQAGGSLRLSCAASGSTFIWNAMGSYRQAPGKERELVAAISSGGSTYYADSVKGRFTISRDNAKNTVYLQMNSLKPEDTAVYYCAAEYVYNVWEQRYAVYSTDDYWGQGTQVTVSS”: the “polyreactivity (PSR sort gate)” value is “low polyreactivity”.

Regarding “QVQLVESGVGLVQAGGSLRLSCAASASTFYGYTMGWNRQAPGKERELVAAITSTGRTYYADSVKGRFTISRDNAKNTVYLQMNSLKPEDTAVYYCAKKSSARRYDYDYWGQGTQVTVSS”, the “polyreactivity (PSR sort gate)” value was “high polyreactivity”.

Take “QVQLVESGGGLVQAGGSLRLSCAASGIIFYDYAMGWYRQAPGKERELVAAITSSGGSTYYADSVKGRFTISRDNAKNTVYLQMNRLKPEDTAVYYCAAATRGSGRRYDYWGQGTQVTVSS”: the “polyreactivity (PSR sort gate)” value was “high polyreactivity”.

Turning to “QVQLVDSGGGLVQAGGSLRLSFAASGITFFYYAMGWYRQAPGKERELVAAISTSGGRTYYADSVKGRFTISRDNAKNTVYLQMNSLKPEDTAVYYSAAQSGWLRYYYWGQGTQVTVSS”, the “polyreactivity (PSR sort gate)” value is on record as “high polyreactivity”.

In the case of “QVQLEESGGGLVQAGGSLRLSCAASGRTFRLNVMGWYREAPGKQRELVAAISTRGGDTYYADSVKGRFTISLDNAKNTDYLQMNSLKPEDTALYYCAAEYTYVYDYWGQGTQVTLSS”, the “polyreactivity (PSR sort gate)” value is on record as “high polyreactivity”.

As for “QVQLVESGGGLVQAGGSLRLSCAASGSIFNLNAMGWYRQAPGKERELVASISSDGSTYYADSVKGRFTISRDNAKNTVYLQMNSLKPEDTAVYYCNADSQWAFKQLSFDYWGQGTQVTVSS”, the “polyreactivity (PSR sort gate)” value is on record as “low polyreactivity”.

On to “QVQLVESGGGLVQAGGSLRLSCAASGRIFFANTMGWYRQAPGKERELVAAISLSSGSTYYADSVKGRFTISRDNAKNTVYLQMNSLKPEDTAVYYCAARGYSHVASRLYYYWGQGTQVTVSS”, for which the “polyreactivity (PSR sort gate)” value was “high polyreactivity”.

As for “QVQLVESGGGLEQAGGRLRLICAASGRTFDRYPMGWYRQAPGKESELVAAITWSGGRTYYADSVKGRFTISRDNAKNTVYLQMNSLKPEDTAVYYCAADNSYRGYHSPYEYWGQGTQVTVSS”, the “polyreactivity (PSR sort gate)” value is reported as “low polyreactivity”.

Turning to “QVQLVESGRALVQAGGSLRVSCAASGRTFDTNAMGWYRQAPGKERELVAVITARGGNTSYADSVKGRFTLSRDNAKNSVYLQMNSLKPEDTAVYYCAARVYRAPWTYDEGNYWGQGTQVTVSS”, the “polyreactivity (PSR sort gate)” value is on record as “low polyreactivity”.

Turning to “PVQLVETGGGLVQAGGSLRLSCAASGGIFTLYVLGWYRQPPGKERELVAAISRTGGSTYYADSVKARFTISRDNAKNTVYLQMNSLKPEDTAVYYCAADYRQPSAFYYWGQGTQVTVSS”, the “polyreactivity (PSR sort gate)” value is on record as “high polyreactivity”.

As to “QVQLVESGGGLVQAGGSLRLSCASSGSTFPRYAMGWYRPAPGKETELVAAISSSGRTYYADSVKGRFTISRDNAKNTVFLQMNSLKPEDTAVYYCNAPVARGEASYYWGQGTQVTVSS”, the “polyreactivity (PSR sort gate)” value was “high polyreactivity”.

Take “QVQLVESGGGLVQAGGSLRLSCAASGSIFSTYAMGWYRQAPGKERELVAAISGSGGRTYYADSVKGRFTISRDNAKNTVYLQMNSLKPEDTAVYDCASRVFRGLGEYYWGQGTQVTVSS”: the “polyreactivity (PSR sort gate)” value was “high polyreactivity”.

Consider “QVQLVESGGGLVQAGGSLRLSCAASGSIFKFYAMGWYRQAPGKERELVAAISQSGGRTYYADSVKGRFTISRDNAKNTVYLQMNSLKPEDTAVYYCAKSVFPVYGRPSNLWFNYWGQGTQVTVSS”, for which the “polyreactivity (PSR sort gate)” value is recorded as “high polyreactivity”.

As to “QVQLVESGGGLVQAGGSLSLSCAASGSTFRHYAMGGYRQAPGKERELVAAISSRGGSTHYADSVKGRFTISRDNAKNTVYLQMNSLKPEDTAVYYCARDTDTQSSRSSDYDYWGQGTQVNVSS”, the “polyreactivity (PSR sort gate)” value is “low polyreactivity”.

As to “QVQLVESGGGLVQAGGSLRLSCAASGRTFETNAMGWYRQAPGKERELVASINWSGGSTYYADSVKGRFTISRDNAKNTVYLQMNILKPEDTAVYYCAADHSYWDWWSYYYWGQGTQVTVSS”, the “polyreactivity (PSR sort gate)” value was “low polyreactivity”.

For “QVQLVESGGGLVQAGGSLRLSCAASGFIFDIYAMGWYRQAPGKERELVASINWSGGDSTSYADSVKGRFTISRDNAKNTVYLQMNSLKPEDTAVYYCNAEYWSYAGGYPDEYDYWGQGTQVTVSS”, the “polyreactivity (PSR sort gate)” value is reported as “low polyreactivity”.

Consider “QVQLVESGGGLVQAGGSLRLSCAASGITYGTYAMGWYRQAPGKERELVARITGSGGRTYYADSVKGRFTISRDNAKNTVYLQMISLKPEDTAVYYCAAETWRRYLFGYWGQGTQVTVSS”, for which the “polyreactivity (PSR sort gate)” value is given as “high polyreactivity”.

“QVQLVESGGGLVQAGGSLRLSCAASGRTFWFYTMGWYRKAPGKEREFVAAISSGGSTNYADSVKGRFTISRDNAKYSVYLQMNSLKPEDTALYYCNARFQVGQSEYAVWYYPKYDYWGQGTQVTVSS”: the “polyreactivity (PSR sort gate)” value is recorded as “low polyreactivity”.

Take “QVQLVESGGGLVQAGGSLRLSCAASGLIFWYNAMGWYRQAPGKEREFVAAITSDGGRTYYADSVKGRFTISRDNAKNTVYLQMNSLKPEDTAVYYCTARGYGYLGRKGGYSYGYYYWGQGTQVTVSS”: the “polyreactivity (PSR sort gate)” value is “low polyreactivity”.

In the case of “QVQLVESGGGLVQAGGSLRLSCAASGSTFKRYAKGWYRQAPGKERELVAAITLSGGNTYYADSVKGRFTISRDNAKNTVYLQMNSLKPEDTAVYYCAARRYRGYDYWGQGTQVTVSS”, the “polyreactivity (PSR sort gate)” value is given as “high polyreactivity”.

For “QVQLVESGGVLVQAVGSLRLSCAASGSIFHDYALGWYRQAPGKEREMVAAISSGSGSTSYADSVKGRFTISRDNAKNTVYLQMNSLKPEATAVYYCNADADAVPFAFRGSYDYWGQGTQVTVSS”, the “polyreactivity (PSR sort gate)” value is “low polyreactivity”.

Take “QVQLEESGGCLVQAGGRIRLSCAASGSIFGYYAMGWYRQAPGKERELVADISYTGVSTYYADSVKGRFTISRDNAKNTVYLQMNSLKPEDTAVYYCAADWVYPDYSWYSYTDFDYWGQGTQVTVSS”: the “polyreactivity (PSR sort gate)” value is recorded as “low polyreactivity”.
